Values quoted from earlier work as cited in article PMC4152934.
pKd: −log10 of the molar value.

Tests used:
AdipoR1 (Mus musculus) = AdipoR1 (Mus musculus) (UniProt Q91VH1)
AdipoR2 (Mus musculus) = AdipoR2 (Mus musculus) (UniProt Q8BQS5)
Chain of UniProt Q8BQS5 (Q8BQS5 whole entry): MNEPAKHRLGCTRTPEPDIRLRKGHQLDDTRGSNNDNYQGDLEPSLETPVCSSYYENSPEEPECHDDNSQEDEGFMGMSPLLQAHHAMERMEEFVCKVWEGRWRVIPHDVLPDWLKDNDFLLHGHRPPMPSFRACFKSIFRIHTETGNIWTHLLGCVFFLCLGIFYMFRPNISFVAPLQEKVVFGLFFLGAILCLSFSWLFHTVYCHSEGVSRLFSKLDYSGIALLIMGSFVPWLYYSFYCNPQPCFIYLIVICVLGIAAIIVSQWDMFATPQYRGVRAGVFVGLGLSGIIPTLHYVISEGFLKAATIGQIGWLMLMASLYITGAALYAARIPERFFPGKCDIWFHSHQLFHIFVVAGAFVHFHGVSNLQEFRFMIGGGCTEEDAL

Chain of UniProt Q91VH1 (Q91VH1 whole entry): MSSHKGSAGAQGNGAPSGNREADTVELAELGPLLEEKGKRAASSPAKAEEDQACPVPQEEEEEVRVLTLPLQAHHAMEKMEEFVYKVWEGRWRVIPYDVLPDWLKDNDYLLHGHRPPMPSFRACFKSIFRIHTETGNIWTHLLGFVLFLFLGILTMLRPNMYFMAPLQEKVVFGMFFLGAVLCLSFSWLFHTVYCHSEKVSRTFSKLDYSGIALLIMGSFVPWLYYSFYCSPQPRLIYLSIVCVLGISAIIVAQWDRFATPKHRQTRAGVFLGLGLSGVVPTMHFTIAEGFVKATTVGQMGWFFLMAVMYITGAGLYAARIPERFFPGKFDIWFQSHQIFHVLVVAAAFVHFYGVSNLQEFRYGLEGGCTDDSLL

**Q.** With “globular adiponectin trimer globular domain (from UniProt Q60994)” as the substance, how does the pKd (AdipoR1 (Mus musculus)) read?
**A.** 8.94

**Q.** And the pKd (AdipoR2 (Mus musculus))?
**A.** 7.84
